Source: the supplement of paper PMC7877785
± gives the uncertainty stated by the source.

Assay: self-splicing fitness, log relative to wild type (ln ratio); higher = more splicing; Tetrahymena group I intron in knt gene, E. coli kanamycin selection, DiMSum; sequences stand for … in CUCUCU…GGAGGGAAAAGUUAUCAGGCAUGCACCUGGUAGCUAGUCUUUAAACCAAUAGAUUGCAUCGGUUUAAAAGGCAAGACCGUCAAAUUGCGGGAAAGGGGUCAACAGCCGUUCAGUACCAAGUCUCAGGGGAAACUUUGAGAUGGCCUUGCAAAGGGUAUGGUAAUAAGCUGACGGACAUGGUCCUAACCACGCAGCCAAGUCCUAAGUCAACAGAUCUUCUGUUGAUAUGGAUGCAGUUCACAGACUAAAUGUCGGUCGGGGAAGAUGUAUUCUUCUCAUAAGAUAUAGUCGGACCUCUCCUUAAUGGGAGCUAGCGGAUGAAGUGAUGCAACACUGGAGCCGCUGGGAACUAAUUUGUAUGCGAAAGUAUAUUGAUUAGUUUUGGAGUACUCGUGGUCG
How it was run: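 Fitness was computed with DiMSum as the error-weighted combination of replicate fold changes, kanamycin versus none, each normalised to wild type. The library randomised all eight intron nucleotides of the P1ex region, with the intron placed in the knt kanamycin-resistance gene on pET-22b(+) in E. coli BL21(DE3). Six replicate transformations were grown overnight at 37°C or 30°C on LB agar with or without 25 μg/mL kanamycin, plus 100 μg/mL carbenicillin, 50 μM IPTG and 0.2% rhamnose. Pooled colonies were amplicon-sequenced on an Illumina HiSeq 2500.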

Sequence | self-splicing fitness (ln) (30 °C) | self-splicing fitness (ln) (37 °C)
CUCGAGCAAUAUUACGUCCG | -3.41 ± 0.18 | -3.68 ± 0.42
CCUGAGCAAUAUUACGCGAG | -4.35 ± 0.42 | -2.63 ± 0.28
AGUAAGCAAUAUUACGAGAA | – | -1.21 ± 0.41
AUCGAGCAAUAUUACGAUAA | -2.7 ± 0.26 | -1.74 ± 0.21
GUGUAGCAAUAUUACGUACG | -2.64 ± 0.23 | -1.14 ± 0.16
UCACAGCAAUAUUACGCGCG | -0.645 ± 0.089 | -0.233 ± 0.11
AUCUAGCAAUAUUACGCGGC | -3.15 ± 0.38 | -2.92 ± 0.33
CUCUAGCAAUAUUACGUGAA | -3.77 ± 0.21 | -3.07 ± 0.25
GAUGAGCAAUAUUACGGACA | -2.22 ± 0.45 | -3.08 ± 0.47
CCAUAGCAAUAUUACGGAAC | -3.26 ± 0.24 | -1.55 ± 0.27
AGACAGCAAUAUUACGAGUC | -3.06 ± 0.19 | -2.52 ± 0.22
AUUCAGCAAUAUUACGUCUU | -0.0261 ± 0.083 | 0.411 ± 0.089
CCUUAGCAAUAUUACGGGGG | -3.17 ± 0.23 | -1.39 ± 0.23
UCAGAGCAAUAUUACGAUCA | -3.07 ± 0.35 | -2.6 ± 0.31
GGCCAGCAAUAUUACGUACC | -0.685 ± 0.13 | 1.43 ± 0.17
UCGAAGCAAUAUUACGGCAC | -1.74 ± 0.23 | -1.95 ± 0.32
UAGGAGCAAUAUUACGCUUA | -1.49 ± 0.18 | -0.834 ± 0.27
UUUAAGCAAUAUUACGUAGA | -0.521 ± 0.098 | 0.0733 ± 0.14
AAACAGCAAUAUUACGAUCG | -2.18 ± 0.11 | -0.0291 ± 0.11
AUGCAGCAAUAUUACGAGUC | -3.73 ± 0.25 | -2.32 ± 0.22
GGACAGCAAUAUUACGUGGG | -2.49 ± 0.12 | -2.28 ± 0.12
CGGAAGCAAUAUUACGAACU | -1.04 ± 0.1 | -0.0975 ± 0.12
UGACAGCAAUAUUACGGGCU | -2.75 ± 0.16 | -1.57 ± 0.097
AGACAGCAAUAUUACGUAUU | -2.58 ± 0.11 | -1.4 ± 0.12
GCUAAGCAAUAUUACGUUUG | -2.16 ± 0.09 | -0.954 ± 0.12
AUACAGCAAUAUUACGGGUU | -1.9 ± 0.071 | -1.05 ± 0.077
AUAUAGCAAUAUUACGACCC | -1.24 ± 0.28 | –

Sequence | self-splicing fitness (ln) (30 °C) | self-splicing fitness (ln) (37 °C)
GGAGAGCAAUAUUACGGUAC | -3.27 ± 0.5 | -2.07 ± 0.24
GAUAAGCAAUAUUACGGGCA | -1.65 ± 0.12 | -0.177 ± 0.13
CAGAAGCAAUAUUACGGUAC | -4.59 ± 0.28 | -1.72 ± 0.21
GAGCAGCAAUAUUACGCUGA | -2.8 ± 0.19 | -2.13 ± 0.2
AUUGAGCAAUAUUACGGAAU | -1.59 ± 0.17 | -1.28 ± 0.2
GAUAAGCAAUAUUACGGCGA | -0.337 ± 0.12 | 0.114 ± 0.13
GUCUAGCAAUAUUACGUGUC | -0.8 ± 0.089 | -0.0601 ± 0.086
AAUGAGCAAUAUUACGCACC | – | -1.2 ± 0.48
UUCGAGCAAUAUUACGUUAU | -2.58 ± 0.2 | -2.82 ± 0.38
AACCAGCAAUAUUACGACUU | 0.018 ± 0.059 | 0.437 ± 0.077
ACCAAGCAAUAUUACGGUUA | -1.63 ± 0.1 | -1.68 ± 0.096
AUGGAGCAAUAUUACGAUCG | – | -1.1 ± 0.42
GAGCAGCAAUAUUACGUUUC | -3.37 ± 0.14 | -2.2 ± 0.22
UCGCAGCAAUAUUACGCGUC | -3.42 ± 0.16 | -1.8 ± 0.14
CAGGAGCAAUAUUACGCUCU | -3.36 ± 0.26 | -2.41 ± 0.26
AUUAAGCAAUAUUACGUUAU | -1.22 ± 0.097 | -1.1 ± 0.15
GGAAAGCAAUAUUACGAACC | -3.32 ± 0.33 | -1.2 ± 0.19
CCGGAGCAAUAUUACGUUUA | – | -1.99 ± 0.25
CCGGAGCAAUAUUACGGGAU | -3.11 ± 0.36 | -2.44 ± 0.25
GGUAAGCAAUAUUACGUCUG | -1.85 ± 0.14 | -1.51 ± 0.1
UAGAAGCAAUAUUACGUGCA | -0.492 ± 0.087 | -0.0303 ± 0.093
AGGGAGCAAUAUUACGUCAG | – | -2.97 ± 0.35
GGUGAGCAAUAUUACGGUAC | -1.95 ± 0.13 | -1.4 ± 0.18
CUUAAGCAAUAUUACGUCUG | -0.605 ± 0.067 | -0.254 ± 0.08
CCCGAGCAAUAUUACGCAGA | -3.96 ± 0.25 | -2.71 ± 0.33
UUCCAGCAAUAUUACGCGAU | -2.85 ± 0.21 | -1.32 ± 0.18
CCAAAGCAAUAUUACGCCAG | -1.3 ± 0.1 | -0.0837 ± 0.13

Sequence | self-splicing fitness (ln) (30 °C) | self-splicing fitness (ln) (37 °C)
AAAAAGCAAUAUUACGCUAC | -3.43 ± 0.18 | -3.23 ± 0.24
GGAAAGCAAUAUUACGACAU | -0.445 ± 0.013 | -0.0162 ± 0.033
GCCGAGCAAUAUUACGAGUA | -2.36 ± 0.11 | -1.43 ± 0.086
GGCUAGCAAUAUUACGAAAC | – | -0.972 ± 0.4
AUCUAGCAAUAUUACGGAGC | -3.43 ± 0.19 | -1.32 ± 0.14
GGAAAGCAAUAUUACGAAAG | -4.01 ± 0.35 | -3.08 ± 0.35
UGCGAGCAAUAUUACGAGAU | -2.4 ± 0.33 | -3.21 ± 0.35
UGCCAGCAAUAUUACGGUCU | -0.21 ± 0.059 | 0.456 ± 0.07
UCCUAGCAAUAUUACGCGGC | -3.42 ± 0.44 | –
UCUUAGCAAUAUUACGGUUU | -3.61 ± 0.22 | -1.77 ± 0.2
CAGCAGCAAUAUUACGAAUA | -2.35 ± 0.13 | -1.9 ± 0.12
CAUGAGCAAUAUUACGUAGC | -1.64 ± 0.17 | -1.96 ± 0.26
AAUGAGCAAUAUUACGGACC | – | -1.08 ± 0.44
CAGUAGCAAUAUUACGCUAG | -2.14 ± 0.1 | -1.34 ± 0.1
ACAAAGCAAUAUUACGCUUG | -1.62 ± 0.057 | -0.984 ± 0.079
UAUAAGCAAUAUUACGAGUG | 0.0329 ± 0.08 | -0.16 ± 0.099
ACUCAGCAAUAUUACGGGCU | -0.98 ± 0.067 | -0.954 ± 0.095
UUGCAGCAAUAUUACGCGGA | -1.29 ± 0.12 | -0.882 ± 0.13
GUACAGCAAUAUUACGUGCG | -2.57 ± 0.12 | -1.21 ± 0.095
GUGGAGCAAUAUUACGACCU | -1.22 ± 0.094 | -0.548 ± 0.11
CCCGAGCAAUAUUACGCUUG | – | -2.06 ± 0.33
CUCAAGCAAUAUUACGUCGU | -3.21 ± 0.15 | -1.12 ± 0.11
CGUAAGCAAUAUUACGGAAA | -3.62 ± 0.47 | -2.39 ± 0.39
ACCGAGCAAUAUUACGCGCU | -2.81 ± 0.17 | -1.19 ± 0.19
CCGAAGCAAUAUUACGGGAA | -2.26 ± 0.25 | -1.73 ± 0.32
